Measured values published in patent publication US20230083243A1 (VEGA THERAPEUTICS, published 2023).
Substitutions are numbered along the chain they refer to.

T1: recombinant heavy chain Protein S (human, UniProt P07225 42-296)
T1 construct: Fragment of Protein S spanning amino acids 42-296, expressed and purified from HEK293 cells; also called Protein S heavy chain; heavy chain of Protein S
T1 sequence: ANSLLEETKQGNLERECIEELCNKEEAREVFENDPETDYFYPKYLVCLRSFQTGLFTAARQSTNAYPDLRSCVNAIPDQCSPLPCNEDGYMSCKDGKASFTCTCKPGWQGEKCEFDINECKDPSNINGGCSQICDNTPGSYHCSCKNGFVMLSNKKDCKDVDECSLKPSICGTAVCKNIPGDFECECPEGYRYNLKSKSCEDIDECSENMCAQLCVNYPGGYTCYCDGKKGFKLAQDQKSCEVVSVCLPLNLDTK

T2: human Protein S (human, UniProt P07225 42-676)
T2 construct: also called ProS; ProS1
T2 sequence: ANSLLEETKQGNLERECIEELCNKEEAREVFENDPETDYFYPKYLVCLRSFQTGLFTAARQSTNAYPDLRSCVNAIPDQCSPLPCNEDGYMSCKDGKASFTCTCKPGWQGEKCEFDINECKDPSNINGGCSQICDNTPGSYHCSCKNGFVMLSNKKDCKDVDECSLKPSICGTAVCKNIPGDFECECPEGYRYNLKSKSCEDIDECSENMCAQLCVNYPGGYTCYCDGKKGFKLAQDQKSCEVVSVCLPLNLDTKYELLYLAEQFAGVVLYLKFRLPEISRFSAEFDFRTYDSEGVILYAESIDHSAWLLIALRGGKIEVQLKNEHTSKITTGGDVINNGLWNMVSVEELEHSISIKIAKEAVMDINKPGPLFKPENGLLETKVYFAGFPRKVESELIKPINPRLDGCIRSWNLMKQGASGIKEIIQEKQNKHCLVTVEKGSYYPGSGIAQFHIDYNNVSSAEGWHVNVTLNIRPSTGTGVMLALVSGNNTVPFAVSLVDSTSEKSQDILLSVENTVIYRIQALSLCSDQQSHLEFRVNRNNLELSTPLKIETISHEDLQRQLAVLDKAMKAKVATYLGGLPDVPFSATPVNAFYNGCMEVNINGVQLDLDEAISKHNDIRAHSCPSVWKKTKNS

T3: Protein S-C4BP complex (human, UniProt P04003 49-597; P20851 18-252)
T3 construct: C4BP preparation from Complement Technologies that contains Protein S precomplexed to human C4BP; also called ProS-C4BP Complex; C4BP-Protein S complex
T3 sequence 1: T2 sequence
T3 sequence 2: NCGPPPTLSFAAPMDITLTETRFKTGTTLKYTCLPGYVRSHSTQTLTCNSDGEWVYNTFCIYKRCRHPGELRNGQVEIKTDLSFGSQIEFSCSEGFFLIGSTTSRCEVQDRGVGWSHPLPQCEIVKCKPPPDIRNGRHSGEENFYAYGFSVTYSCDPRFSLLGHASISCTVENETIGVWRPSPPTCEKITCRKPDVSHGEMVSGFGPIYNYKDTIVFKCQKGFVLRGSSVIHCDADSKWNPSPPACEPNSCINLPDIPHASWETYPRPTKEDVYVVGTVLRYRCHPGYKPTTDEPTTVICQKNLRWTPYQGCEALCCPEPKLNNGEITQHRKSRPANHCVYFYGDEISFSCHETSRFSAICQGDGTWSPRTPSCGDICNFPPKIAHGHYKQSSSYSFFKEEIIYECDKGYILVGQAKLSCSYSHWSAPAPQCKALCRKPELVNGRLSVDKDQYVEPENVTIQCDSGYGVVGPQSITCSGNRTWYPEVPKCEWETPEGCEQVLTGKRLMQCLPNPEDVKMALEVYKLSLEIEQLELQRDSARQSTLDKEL
T3 sequence 3: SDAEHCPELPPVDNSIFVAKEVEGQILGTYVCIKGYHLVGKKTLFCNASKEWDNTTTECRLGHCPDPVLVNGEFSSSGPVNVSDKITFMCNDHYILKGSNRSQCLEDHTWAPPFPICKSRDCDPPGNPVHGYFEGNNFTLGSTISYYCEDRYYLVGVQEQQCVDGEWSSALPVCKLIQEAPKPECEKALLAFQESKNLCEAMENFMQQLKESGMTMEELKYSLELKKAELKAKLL

B1: Antibody 42 (antibody, V domains shown)
VH: QVQLVQSGSEVKKPGASVKVSCKASGYTFTNYYIHWVRQAPGQGLEWMGIITPSGGTTSYAQKFQGRVTMTRDTSTNTVYMGLSSLRSEDTAMYYCARAGVQLDRRGWFDPWGQGTLVTVSS
VL: SYELTQPPSVSVSPGQTASITCSGDKLGDKYVFWYQQKPGQSPVLVIYQDSKRPSGIPERFSGSNSGNTATLTISGTQTMDEADYYCQAWDSSTVGFGGGTKLAVL
notes: Human variable region with rat Fc
B2: Antibody 34 (antibody, V domains shown)
VH: QVQLQQSGTELVRPGTSVKMSCKAAGYTFTNHWIGWVKQRPGHGLEWIGDIYPGGGYTNYNEKFKGKASLTADTSSTTAYMQLSSLTSEDSAIYYCSRFGDQNWAWFAYWGQGTLVTVSA
VL: DIQMNQSPSSLSASLGDTITITCRASQNIHMWLSWYQQKPGNIPKLLIFKTSNLHTGVPSRFSGSGSGTDFTLTISSLQPEDIATYYCLQGQSYPFTFGGGTKLEIK
B3: Antibody 38 (antibody, V domains shown)
VH: EVQLVESGGGLVKPGGSLRLSCAASGISFSNAWMSWVRQAPGKGLEWVGRIKANPDGGTTDYAAPVKGRFTISRDDSKNTLYLQMNSLKTEDTAVYYCTTELDILLWFTSFDYWGQGTLVTVSS
VL: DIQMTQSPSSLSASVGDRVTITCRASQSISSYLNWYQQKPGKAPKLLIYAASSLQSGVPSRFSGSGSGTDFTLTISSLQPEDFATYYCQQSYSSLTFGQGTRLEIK
notes: as for B1
B4: Antibody 40 (antibody, V domains shown)
VH: EVQLVESGGGLVQPGGSLRLSCAASGFTFSSYSMNWVRQAPGKGLEWVAYISSSTRTIFYADSVKGRFTISRDNAKNSLYLQMNSLRDEDTAFYYCARERSAFDYWGQGTLVTVSS
VL: SYVLTQPPSVSVAPGQTARITCGGDNIGGKSVHWYQQKPGQAPVMVVYDDSDRPSGIPERFAGSNSGNTATLAISRVEAGDEADYYCQVWEITSDHPAFGGGTRLTVL
notes: as for B1
B5: Antibody 35 (antibody, V domains shown)
VH: QLQLQESGPGLVKPSETLSLTCTVSGGSITNSNYYWGWIRQPPGKGLEWIGSVYYSGTTYYNPSLKSRVTISVDPSKNQFSLKLSSVTAADTAVYYCVRESESYYYYGSDVWGQGTTVTVSS
VL: DIQMTQSPSSLSASVGDRVTITCRASQGINNYLAWFQQKPGKAPKSLIYAASSLQSGVPSKFSGSGSGTDFTLTISSLQPEDFATYYCQQYNSYPRTFGQGTKVEIK
notes: as for B1
B6: Antibody 36 (antibody, V domains shown)
VH: EVQLVESGGGLVKPGGSLRLSCAASGFTFSSYNMNWVRQAPGRGLDWVSSISSSSSYIYYADSVKGRFTISRDNAKNSLYLQMNTLRAEDTAVYYCARDEEWELLTGFDYWGQGTLVTVSS
VL: B5 VL with S53N, S60L, R96I, K103R, V104L
notes: as for B1
B7: Antibody 37 (antibody, V domains shown)
VH: B3 VH
VL: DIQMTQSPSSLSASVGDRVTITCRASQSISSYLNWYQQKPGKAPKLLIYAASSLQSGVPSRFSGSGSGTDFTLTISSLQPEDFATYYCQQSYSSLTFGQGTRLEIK
notes: Same variable regions as Antibody 38
B8: Antibody 29 (antibody, V domains shown)
VH: B5 VH
VL: B5 VL
notes: Same variable regions as Antibody 35
B9: Antibody 30 (antibody, V domains shown)
VH: B6 VH
VL: B5 VL with S53N, S60L, R96I, K103R, V104L
notes: Same variable regions as Antibody 36

The binders below were run against T1, recombinant heavy chain Protein S (assay: ELISA; plate coated with recombinant Protein S heavy chain; 1 mM CaCl2).
Experimental: (§1) Binding to the heavy chain of Protein S was determined using an ELISA based method. Briefly, high binding ELISA plates were coated with recombinant heavy chain Protein S expressed and purified from HEK293 cells. The “heavy chain” of Protein S represents a fragment of Protein S spanning amino acids 42-296. The coated plate was blocked with 1% casein solution. Then, buffer containing […] of antibody was applied to the well with buffer containing 1 mM calcium chloride.
B1 was tested, and the “Binding to heavy chain (OD)” value was 0.11 OD. In the case of B2, the “Binding to heavy chain (OD)” value is reported as 0.16 OD. For B3, the “Binding to heavy chain (OD)” value was 0.1 OD. For B4, the “Binding to heavy chain (OD)” value was 0.11 OD. For B5, the “Binding to heavy chain (OD)” value was 0.08 OD. In the case of B6, the “Binding to heavy chain (OD)” value is reported as 0.08 OD.

The binders below were run against T2, human Protein S (assay: ELISA; plate coated with human Protein S; 1 µg/ml antibody; 1 mM calcium chloride).
Experimental: (§2) Calcium dependence of binding was determined using an ELISA based method. Briefly, high binding ELISA plates were coated with human Protein S. Then, buffer containing 1 μg/ml of antibody was applied to the well with either buffer containing 1 mM EDTA or 1 mM calcium chloride.
B1 was tested, and the “Binding to Protein S in CaCl2 (OD)” value was 0.67 OD. With B2 the “Binding to Protein S in CaCl2 (OD)” value was 0.51 OD. For B3, the “Binding to Protein S in CaCl2 (OD)” value was 1.38 OD. In the case of B4, the “Binding to Protein S in CaCl2 (OD)” value is reported as 0.51 OD. With B5 the “Binding to Protein S in CaCl2 (OD)” value was 0.96 OD. B6 was tested, and the “Binding to Protein S in CaCl2 (OD)” value was 0.6 OD.

Each binder was assayed against T2, human Protein S (assay: ELISA; plate coated with human Protein S; 1 µg/ml antibody; 1 mM EDTA).
Experimental: as §2
For B1, the “Binding to Protein S in EDTA (OD)” value was 0.53 OD. B2 was tested, and the “Binding to Protein S in EDTA (OD)” value was 0.06 OD. For B3, the “Binding to Protein S in EDTA (OD)” value was 0.09 OD. In the case of B4, the “Binding to Protein S in EDTA (OD)” value is reported as 0.11 OD. For B5, the “Binding to Protein S in EDTA (OD)” value was 0.11 OD. In the case of B6, the “Binding to Protein S in EDTA (OD)” value is reported as 0.03 OD.

The binders below were run against T3, Protein S-C4BP complex (assay: BLI Octet; antibody on anti-human Fc probe).
Experimental: The Octet assay was used to determine the capability of the Protein S antibodies provided herein to bind to Protein S either alone, or when complexed to C4BP.
Using the Octet System (Sartorius), the binding of each antibody to both Protein S and Protein S in complex with C4BP was determined. It had previously been determined that the C4BP preparation from Complement Technologies contains Protein S precomplexed to human C4BP. Therefore, this preparation represented the Protein S-C4BP complex and plasma purified Protein S from Haematologic Technologies was used as the source of free Protein S. The human Fc antibodies were immobilized onto anti-human Fc capture probes by placing the probes into 10 μg/ml antibody solution in 10 mg/ml bovine serum albumin, 20 mM Tris pH 7.0, 150 mM NaCl, and 4 mM calcium chloride. Then the bound antibodies were placed into solutions containing either 75 μg/ml Protein S or 100 μg/ml C4BP (C4BP-Protein S complex).
B7: no binding (tested: 100 µg/ml C4BP (C4BP-Protein S complex)). B8: no binding (tested: 100 µg/ml C4BP (C4BP-Protein S complex)). B9: no binding (tested: 100 µg/ml C4BP (C4BP-Protein S complex)).

What follows are binders tested against T2, human Protein S (assay: cell-based or functional assay).
With B1 the “IC50 APC” value was 215 nM. In the case of B2, the “IC50 APC” value is reported as 95.8 nM. B3 was tested, and the “IC50 APC” value was 84 nM. For B4, the “IC50 APC” value was 11.9 nM. With B5 the “IC50 APC” value was 371 nM. In the case of B6, the “IC50 APC” value is reported as 15.3 nM and the “IC50 TFPI” value is reported as 6.05 nM.

What follows are binders tested against T1, recombinant heavy chain Protein S (assay: ELISA on recombinant Protein S heavy chain).
Experimental: as §1
B1: no binding. B2: no binding. B3: no binding. B4: no binding. B5: no binding. B6: no binding.

Each binder was assayed against T4, cynomolgus monkey Protein S (cynomolgus monkey) (assay: BLI Octet; antibody on anti-human Fc probe; Protein S 7.81-500 nM; 4 mM CaCl2).
T4 construct: also called cyno Protein S
Experimental: (§3) Binding characteristics of the Protein S antibodies were also further characterized using Octet. Using the Octet System (Sartorius), the binding of each antibody to both human and cynomolgus monkey (“cyno” in Table 10) Protein S was determined. The human Fc antibodies were immobilized onto anti-human Fc capture probes by placing the probes into 10 μg/ml antibody solution in 10 mg/ml bovine serum albumin, 20 mM Tris pH 7.0, 150 mM NaCl, and 4 mM calcium chloride. […] Next, the probes were placed into buffer and the dissociation rates were measured.
With B7 the Kd was 0.672 nM, the koff was 0.000119 s⁻¹ and the kon was 177000 M⁻¹ s⁻¹. B8 showed a Kd of 20 nM, a koff of 0.00177 s⁻¹ and a kon of 88200 M⁻¹ s⁻¹. Work on B9 yielded a Kd of 20.9 nM, a koff of 0.00073 s⁻¹ and a kon of 35000 M⁻¹ s⁻¹.

What follows are binders tested against T2, human Protein S in the same assay as above.
Experimental: as §3
In the case of B7, the Kd is reported as 0.382 nM, the koff is reported as 8.32e-05 s⁻¹ and the kon is reported as 218000 M⁻¹ s⁻¹. B8 showed a Kd of 21.1 nM, a koff of 0.00173 s⁻¹ and a kon of 81900 M⁻¹ s⁻¹. B9 gave a Kd of 11.5 nM, a koff of 0.000279 s⁻¹ and a kon of 24200 M⁻¹ s⁻¹.
